In the nanobody polyreactivity screen of Harvey et al. (2022):

Experiment: yeast display, Sf9 membrane polyspecificity reagent, FACS + sequencing; frameworks hold sequencing errors
Summary of the method: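 After 36–48 hours of galactose induction, yeast (Saccharomyces cerevisiae BJ5465) displaying a synthetic nanobody library were stained at 4 °C for 1 hour with 10% biotinylated, detergent-solubilized Sf9 membrane reagent. Streptavidin microbeads enriched the stained cells before FACS sorting into low and high (top ~1%) gates on anti-HA and streptavidin fluorescence. Each clone's polyreactivity label reflects its gate of origin.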

Row | Sequence | polyreactivity (PSR sort gate)
1 | QVQLVESGGGLVQAGGSLRLSCAASGFTFFPYAMGWYRQAPGKEREFVAANFSDGSTYYADSVKGRFTISRDNAKNTVYLQINILKPEDTAVYYWAAAWYEQAYQTGYFEFDYWGLGTQVTVSS | low polyreactivity
2 | QVQLVESGGGLVQAGGSIRLICAASGRTFSRYAMGWYRQAPGKERELVAAITFRFGRTYYADSVKGRFTISRDNAKNTVYLQMNSMKPEDTSVYYCAAETKYSGAYPYDYWGQGTQVPVSS | high polyreactivity
3 | QVKLVESGGGLVQAGGSLRLSCAASGSTLRYYGMGWYRQAPGKERELVAAISSGGITNYADSVKGRFTISRDNAKNTVYLQMNSLKPEDTAVYYCAAYYTYTWFGYWGQGTQVTVSS | low polyreactivity
4 | QVQLVESGGGLVQAGGSLRLSCAASGRTFYVNTMGWYRQATGKETELVARITRGGSTYYADSVKGRFTISRDNAKNTVYLQMNSLKPEDTAVYYCATDHFPVYSTHVIYEFDYWGQGTQVTVSS | low polyreactivity
5 | QVQLVESGGGLVQAGGSLRLRCAASGFTFRYYALAWYRPAPGKERELVAAISGSGGSTYYADSVKGRFTISRDNAKNTVYLQMNSLKPEDTAVYYCNALSARSRLQSDYWGQGTQVTVSS | high polyreactivity
6 | QVQLVESGGGLVQAVGSLRLSFAASGFTFGRNSLGWYRQAPGKERELVAAMTSRVGSTYYADSVKGRFTISRDKAKNTLYLQMNSLKPEDTAVYYCAAVKGPERPTTPYDYWGQGTQVTVSS | high polyreactivity
7 | QVQLVESGGGLVQAGGSLRLSCAASGSTFDSNGMGWYRQAPGKERELVADITYSDGRTYADSVKGRFTISRDNAKNTVYLQMNSLKPEDTAVYYCAVSDSVYAGFTSYDYWGQGTQVTVSS | low polyreactivity
8 | QVQLVESGGGLVQAGGSLRLSCAASGSIFYRNAMGWYRQAPGKERELVAAISSDGSTNYADSVKVRFTISRDNAKNTVYLQMNSLKPEDTAVYYCAAPWTQILDYWGQGTQVTVSS | low polyreactivity
9 | QVQLVESGGGLVQAGCSLRLSWAASGRTFFSNAMGWYRQAPGKERELVAAISNGDNTYYADSVKGRFTISRDNAKNTVYLQMNSLKPEDTAVYYCAKDYRWVWRKYGYWGQGTQVTVSS | low polyreactivity
10 | QVQLVESGGGLVQAGGSLRLSCAASGFTFIRNAMGWYRPAPGKERELVAAISTSGGTTYYADSVKGRFTISRDNAKNTVYLQMNSLKPEDTAVYYCNKGIGRSDPDYRYYYWGQGTQVTVSS | high polyreactivity
11 | QVQLVESGGGLVQAGGILRLSCAASGRIFLTYAMGWYRQAPGKERELVAAIRSRSGTTYYADSVKGRFTISRDNAKNTVYLQMNSMKPEDTAVYYCAAGGKSRSYYWGQGTQVTVSS | high polyreactivity
12 | QVQRVESGGGLVQAGGSLRLSCAASGSIFSYYARGLYRQAPGNESELVAVINSGSTNYAASVKGRFTISRDNAKNTVYIHMNSLKPEDTAVYYCAADSLLYLLEQYTTAPYDYWAQGTQVTVSS | low polyreactivity
13 | QLQLVESGGGLVQAGGSLRLSCAASGFNFPANAMGCYRQAPGKEREFVAAITRRGGSTYYADSVKGRFTISRDYAKNPVYLQMNSLKPEDTAVYYCATYDPARSTQGYDYWGQGTQVTVSS | high polyreactivity
14 | QVQLVESGGGLVQAGGSLRLSCAASGRTFGWNAMGWYRQAPGKERELVAAITRGGITNYADSVKGRFTISRDNAKNTVYLQMNSLKPEDTAVYYCNKKFYRGASRYYYWGQGTQVTVSS | high polyreactivity
15 | QVQLVESGGGLVQAGGSLRLSCAASDLQILCYGWYRQPPGKERELFASITRGDGSTYYADSVKGRFTISRDNAKNTVFIQMNSLKPEDTAVYYCADYNDWRDELYDYWGQGTQVTVSS | low polyreactivity
16 | QLQLEESAGGLVQAGGSLRLSCAASGSIFSDNAMGWYRQAPGKERELVASINSGGSTNYADSVKGRFTISRDNAKNTVYLQMNSLKPEYTAVYYFNKEDEVVYPGYPNGGMDYWGQGTQVTVSS | low polyreactivity
17 | QVQLVESGGGLVQAGGSLRLSCAASGSIFINNAMGWYRQATGKERELVSAIRRGDSTTYADSVKGRFTISRDNAKNTVYLQMNSLKPEDTAVYYCATSPWWYGYAAYGMDYWGQGTQVTVSS | low polyreactivity
18 | QVQLVESGGGLVQAGGSLRLSCAASGRTLKINAMGWYRQAPGKERELVARISAGRTYYADSVKGRFTISRDNAKNTVYLQMNSLKPEDTAVYYCARRTNRPPWGFEYWGQGTQVTVSS | high polyreactivity
19 | QVQLVESGGGLVQAGGSLRLSCAASGSTFGNYAMGWYRQAPGKEMELVAAISTSGDSTYYADSVKGRFTISRDNAKYTVYLQMNSLKPEDSAVYYCKARGIATGNRHEYWGQGTQVTVSS | low polyreactivity
20 | QVQLVESGGGLVQAGGSLRLSCDASGSTFYRNVIGWYRQAPGKERELVAAISSGGSTYYADSVKGRFTISRDNAKNTVYFQMNSLKPEDTAVYYCAARKRYSYDYWGQGTQVTVSS | low polyreactivity
21 | QVQLVESGGGLVQAGGSLRLSCASSGLIFGANAMGWYRQAPVKARELVAVITSDGSTDYADSVKGRFIISRDNAKNTVYLQMNSLKPEDTAVYYCATTFYLIFGYTYSAYYYWGHGTQVTVSS | high polyreactivity
22 | QDQLVESRGGLVQAGGSLRLSCAASGINIGTNAMGWYRQAPGKERELVAAISGGGSTDYADSVKGRFTISRDNAKNPVYLQMNSLKPEDPAFYYCAANTGPVPLKGDYWGQGTQVTVSS | low polyreactivity

Row | Sequence | polyreactivity (PSR sort gate)
23 | QVQLVESGGGLVQAGGSLRLSCAASGRIFLWYAMGWYRQAPGKERELVAAISSGGSTIYADSVKGRFTISRDNAKNTVYLQMNSLKPEDTAVNYCAAFPTQRRHPLVGFNSWGQGTQVTVSS | high polyreactivity
24 | QVQLVESGGGLVQAGGSLRLSCAASGITFTPNAMGWYRQAPGTEREFVAAITYSGGSTYYADSVKGRFTISRDNAKNTVYLQMNSLKPEDTAVYYCAAVYDLLYYEAYYYWGQGTQVTVSS | low polyreactivity
25 | QVQLVESGGGLVQAGGSLRLSCAASGLIFFSYAMGWYRQAPGKERELVAAISRRGGRTYYADSVKGRFTISRDNAKNTVYLQMNSLKPEDTAASYCATYVASHRGDRTYDHWGQCTQVTVSS | low polyreactivity
26 | QGQLVESGGGLVQAGGSLRLSCAASGSTFLTNTMGWYRHAPGKERELVAAITLRGGRTYYADSVKGRFTISRDNAKNTVYVQMNSLKPEDTAVYYCTARNYYYTSDRDYWGQGTQVTVSS | low polyreactivity
27 | QVQLVESGGGLVQAGGSLRLSCAASGFIFSYYAMGWYRQAPGKERELVAAITWDGGSTYYADSVKGRFTISRDYANNTVYLLLNSLKPEDTAVYYCNAYYYYRRPLEGGYWGQGNQVTVSS | low polyreactivity
28 | QVQLVESGGGLVHAGGSLRLSCAASGGTFVYNAMGWYRQAPGKERELVAVISKRGGSTYYADSVKGRFTISRDNAKNTVYLEMISLKPEDTAVYYCAVSYRSFRYYWERYYSWGQGTQVTVSS | high polyreactivity
29 | QVQLVESGGGLVQAGGSLRLSCAASGRTFDLYAMGWYRQAPGKERELVAAITKGGGSTYYADSVKGRFTLSRDNAKNTVYLQMHSLKPVDTAVYYCAARKYKRIYRISSGIGYYWGQGTQVTVSS | high polyreactivity
30 | QVQLVDSGGGLVQAGGSLRLSCAASGRTIHYYAMGWYRQAPGKEREVVAVISSGGSTYYADSVKGRFTISRDNAKNTVYLQMNSLKPEDTAVYYCAALSSRTYKTGYYTYDYWGQGTQVTVSS | low polyreactivity
31 | QVQLVESGGGLVQAGGSLRLSCAASGLIFPSYAMGWYRQAPGKERELVATINRGSRTNYADSVKGRFTISRDNAKNTVYLQMNSLKPEDTAVYYCAAHYTTFIPSPDGDYLGQGTQVTVSS | low polyreactivity
32 | QEQLQESGGGLVLAGGSLRLSCSASGNISVYGSMGWYRQAPGKELEFVATIDPGTNTNYADSVKDRFTISRDNAKNTVYLQMNSLKPEDRAVYYCAVEAGSDWPFRYWGQGTQVTVSS | low polyreactivity
33 | QVQLVESGGGLVQAGGSLRLSCAASGIFVSYAMGWYRQAPGKDRAVVAAISSSGGSTYYADSVKGRFTISRDNAKNTVYLQMNSLKPEDTAVYYGAARLVKSQTTVQGYYWGQGTQVTVSS | high polyreactivity
34 | QVQLVESGGGLVQAGGSLRLSCAASGSIFAKYAMGWYRQAPGKERELVASITYSGGGTYYADSVKGRFTISLDNAKNTVYLQMNSLKPEDTAFYYCNAVKRVYIWASFRYVFWYDSWGQATQVTVSS | high polyreactivity
35 | QVQLVESGGGLVQAGGRLRLSCAASGRTFSPYAMGWYREAPGKEREFVAASTWSAGRTYYADSVKGRFTISRDNAKNTVYLQMNSLKPEDTAVYYCNARDRSITYPRYDYWGQGTQVTVSS | high polyreactivity
36 | QVQLVESGGGLVQAGGSLRLSCAASGSTFVRYAMGWYRQAPGKEREFVASITCRGGSTYYADSVKGRFTITRDNAKNTVYLQMNSLKPEDTAVYYCAARGREWYYWGQGTQVTVSS | high polyreactivity
37 | QVQLVESGGGLVQAGGSLRLSCAASGGTFSPYAMGWYRQAPGKERELVAVIRSDVTTNYADSVKGRFTISRDNAKNTVYLQMNSLKPEDTAVYYCAVQYLGYGGLFPLDYWGQGTQVTVSS | low polyreactivity
38 | QVQLVESGGGLVQAGGSLRLSCDASGSTFDNYAMGWYRQAPGKERELVAAITTGVTTYYADSVKGRFTISRDNAKNTVYLQMNSLKPEDTAVYYCAADYVSYSQARHEYGYWGQGTQVTVSS | low polyreactivity
39 | QVQLVESGGGLVQAGGSLRLSCAASGRTFARYAMGWYRQAPGKERELVAAITRGGSTKYADSVKGRFTISRDNAKNTVYLQMNSLKPEDTAVYYCNKVIVQYTLDRGYWGQGTQVTVSS | high polyreactivity
40 | QVQLVESGGGLVQPGGSLRLSCAASGGTFYRYAMGWYIQAPGKERELVAAISSRGGSTYYADSVKGRYTISRDNAKNTVYLQMNSLKPEDTAVYYCAALFYLTQWQYDYWGQGTQVTVSS | high polyreactivity
41 | QVQLVESGGVLDQGGGSLRLSCASSGITYRRYAMGWYRQAPGKERELVAANTYGGGSTYYADSVKGRFTISRDNAKNTVYLQMNSLKPADTAVFYCYARYSGGFGGGSKPDYYWGQGTQVTVAS | high polyreactivity
42 | QVQLVESGGGLVQAGGSLRLSCAASGSTFRIYAMGWYRQAPGKDRELVAGITRRGGSTFYADSVKGRFTISRDNANNTVYLQMNSLKPEDTAVYYCAARFRGGMDYWGQGTQVTVSS | high polyreactivity
43 | QVQLVESGGGLVQAGGSLRLSGAASGITFGDYAMGWYRQEPGKERELVAAISYSGGSTYYTDSVKGRFTISRDNAKNTVYLQMNSLKPEDTAVYYCAARFRQLGLAYYYWGQGTQVTVSS | high polyreactivity
